Common to all, as to assay: fluorescence polarisation; 37 °C, after the 25 °C reading ramped over 7 min to 37 °C and 2 min incubation; unlabeled Rb^P against 1.5 nM TMR-E2F1^TD or 7.5 nM TMR-E7^LxCxE; 25 mM Tris pH 8.0, 200 mM NaCl, 1 mM DTT, 0.1% Tween-20; apparent Kd
Holding throughout (conditions): both partners purified
(In general: In fluorescence polarisation assays a small probe gives low polarisation when free and higher when bound to something large.)

In assay [1] the target is T1, retinoblastoma protein pocket domain (Rb^P), wild type (human, UniProt P06400 380-788).
T1 construct: also called WT Rb^P; WT
T1 sequence (looked up): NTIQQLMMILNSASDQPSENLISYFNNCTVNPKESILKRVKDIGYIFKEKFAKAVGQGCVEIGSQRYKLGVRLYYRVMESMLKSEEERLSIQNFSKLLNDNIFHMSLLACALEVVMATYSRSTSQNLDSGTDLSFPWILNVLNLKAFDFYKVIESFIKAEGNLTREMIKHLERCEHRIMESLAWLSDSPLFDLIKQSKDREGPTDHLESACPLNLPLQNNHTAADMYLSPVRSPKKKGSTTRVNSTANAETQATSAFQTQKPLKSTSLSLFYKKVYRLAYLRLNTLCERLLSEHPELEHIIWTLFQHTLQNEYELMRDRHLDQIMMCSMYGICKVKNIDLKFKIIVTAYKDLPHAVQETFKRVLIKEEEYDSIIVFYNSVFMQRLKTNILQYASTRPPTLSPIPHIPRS

In a further assay the target is T2, Rb^P R668H (human, UniProt P06400 380-788, R668H).
T2 construct: also called variant 52
T2 sequence (looked up): T1 sequence (looked up) with R289H

The target of the next assay is T3, Rb^P S671F (human, UniProt P06400 380-788, S671F).
T3 construct: also called variant 53
T3 sequence (looked up): T1 sequence (looked up) with S292F

For a further assay, the target named is T4, Rb^P I679F (human, UniProt P06400 380-788, I679F).
T4 construct: also called variant 57
T4 sequence (looked up): T1 sequence (looked up) with I300F

The target of the next assay is T5, Rb^P R451H (human, UniProt P06400 380-788, R451H).
T5 construct: also called variant 6
T5 sequence (looked up): T1 sequence (looked up) with R72H

The results in this text go back to publication PMC11931385, “Structural and functional analysis of cancer-associated missense variants in the retinoblastoma protein pocket domain” (The Journal of Biological Chemistry, 2025).

Residue numbers refer to the chain shown, from its start. In names and notes the source's numbering stands. No end group written: not given here. TMR = tetramethyl rhodamine dye

B1: TMR-E2F1^TD, peptide of the E2F1 transactivation domain (peptide)
peptide: {TMR}-GEGIRDLFDCDFGDLTPLD
notes: also called E2F^TD; source: synthetic peptide, bought: GenScript
On to B1, for which the Kd in assay [1] worked out at 22 nM; with Rb^P R668H, 22 nM; in the assay with Rb^P S671F it was 46 nM; with Rb^P I679F it was 33 nM; with Rb^P R451H, 56 nM.

B2: TMR-E7^LxCxE, LxCxE peptide of the E7 oncoprotein from HPV (peptide)
peptide: DLYCYEQLN
modifications: also: TMR label, position not given here
notes: source: synthetic peptide, bought: GenScript
With B2, the Kd in assay [1] was 12 nM; with Rb^P R668H, 28 nM; in the assay with Rb^P S671F, 19 nM; in the assay with Rb^P I679F, 20 nM; with Rb^P R451H it was 22 nM.
